From article PMC2844890

Experiment: infectious virion yield
Conditions: glycan lost; control: WT tetherin

B1: tetherin (BST-2): N65,92A (protein)
parent chain: MASTSYDYCRVPMEDGDKRCKLLLGIGILVLLIIVILGVPLIIFTIKANSEACRDGLRAVMECRNVTHLLQQELTEAQKGFQDVEAQAATCNHTVMALMASLDAEKAQGQKKVEELEGEITTLNHKLQDASAEVERLRRENQVLSVRIADKKYYPSSQDSSSAAAPQLLIVLLGLSALLQ
  other: inhibition of virion release: abolishes
